# Legend:
# insulin receptor A [1] = molecular target: T1, insulin receptor A (UniProt P06213-2 28-1370, limits assumed); assay: summary of Table 3; upper end tied by Table 3 to the compound of Example 5.8 (10.58)
# insulin receptor A [2] = molecular target: T1, insulin receptor A; assay: insulin receptor binding assay as in Vienberg et al. 2011; relative to human insulin on insulin receptor A (100%)
# [3] = molecular target: insulin receptor of isolated rat adipocytes (rat, UniProt P15127 27-1383); assay: cell-based or functional assay
# Sequence of insulin receptor of isolated rat adipocytes (P15127 27-1383): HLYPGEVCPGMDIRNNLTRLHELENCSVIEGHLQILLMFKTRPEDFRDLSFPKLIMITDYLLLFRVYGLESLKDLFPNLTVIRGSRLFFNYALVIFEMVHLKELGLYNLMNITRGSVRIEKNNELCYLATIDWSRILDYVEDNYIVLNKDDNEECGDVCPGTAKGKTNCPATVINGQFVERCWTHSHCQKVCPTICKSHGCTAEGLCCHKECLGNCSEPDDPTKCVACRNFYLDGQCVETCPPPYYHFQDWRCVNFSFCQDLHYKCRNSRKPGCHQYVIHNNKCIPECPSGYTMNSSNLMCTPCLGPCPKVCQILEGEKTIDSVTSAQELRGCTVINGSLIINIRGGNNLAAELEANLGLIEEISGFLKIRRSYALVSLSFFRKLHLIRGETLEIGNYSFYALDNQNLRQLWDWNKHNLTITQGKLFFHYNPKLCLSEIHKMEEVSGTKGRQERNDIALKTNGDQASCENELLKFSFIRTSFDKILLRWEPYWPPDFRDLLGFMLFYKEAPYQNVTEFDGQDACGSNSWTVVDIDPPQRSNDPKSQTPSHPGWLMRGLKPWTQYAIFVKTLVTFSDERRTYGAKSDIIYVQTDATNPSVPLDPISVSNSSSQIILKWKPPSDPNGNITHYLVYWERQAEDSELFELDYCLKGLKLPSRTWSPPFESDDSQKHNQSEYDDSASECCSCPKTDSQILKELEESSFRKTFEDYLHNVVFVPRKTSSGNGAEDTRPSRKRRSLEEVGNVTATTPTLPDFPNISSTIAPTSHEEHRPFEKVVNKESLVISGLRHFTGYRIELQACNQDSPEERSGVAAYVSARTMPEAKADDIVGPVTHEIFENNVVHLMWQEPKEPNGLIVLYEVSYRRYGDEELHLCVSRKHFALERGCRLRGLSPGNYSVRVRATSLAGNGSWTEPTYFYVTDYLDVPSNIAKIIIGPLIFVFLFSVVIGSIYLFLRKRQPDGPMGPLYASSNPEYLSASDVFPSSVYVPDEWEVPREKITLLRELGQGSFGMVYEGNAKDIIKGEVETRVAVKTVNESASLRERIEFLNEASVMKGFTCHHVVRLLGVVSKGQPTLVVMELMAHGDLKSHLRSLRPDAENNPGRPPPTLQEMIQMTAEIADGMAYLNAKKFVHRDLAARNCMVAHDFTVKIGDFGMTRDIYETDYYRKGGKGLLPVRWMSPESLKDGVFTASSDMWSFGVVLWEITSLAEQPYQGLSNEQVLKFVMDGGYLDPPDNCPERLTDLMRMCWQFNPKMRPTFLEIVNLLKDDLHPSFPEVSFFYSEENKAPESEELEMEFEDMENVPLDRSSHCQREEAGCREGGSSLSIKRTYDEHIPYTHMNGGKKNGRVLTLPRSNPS
# insulin receptor A [4] = molecular target: T1, insulin receptor A; assay: summary of Table 3; lower end tied by Table 3 to the compound of Example 5.31 (0.47)
# T1 sequence (P06213 other isoform, or with tags, fused parts or gaps limits assumed): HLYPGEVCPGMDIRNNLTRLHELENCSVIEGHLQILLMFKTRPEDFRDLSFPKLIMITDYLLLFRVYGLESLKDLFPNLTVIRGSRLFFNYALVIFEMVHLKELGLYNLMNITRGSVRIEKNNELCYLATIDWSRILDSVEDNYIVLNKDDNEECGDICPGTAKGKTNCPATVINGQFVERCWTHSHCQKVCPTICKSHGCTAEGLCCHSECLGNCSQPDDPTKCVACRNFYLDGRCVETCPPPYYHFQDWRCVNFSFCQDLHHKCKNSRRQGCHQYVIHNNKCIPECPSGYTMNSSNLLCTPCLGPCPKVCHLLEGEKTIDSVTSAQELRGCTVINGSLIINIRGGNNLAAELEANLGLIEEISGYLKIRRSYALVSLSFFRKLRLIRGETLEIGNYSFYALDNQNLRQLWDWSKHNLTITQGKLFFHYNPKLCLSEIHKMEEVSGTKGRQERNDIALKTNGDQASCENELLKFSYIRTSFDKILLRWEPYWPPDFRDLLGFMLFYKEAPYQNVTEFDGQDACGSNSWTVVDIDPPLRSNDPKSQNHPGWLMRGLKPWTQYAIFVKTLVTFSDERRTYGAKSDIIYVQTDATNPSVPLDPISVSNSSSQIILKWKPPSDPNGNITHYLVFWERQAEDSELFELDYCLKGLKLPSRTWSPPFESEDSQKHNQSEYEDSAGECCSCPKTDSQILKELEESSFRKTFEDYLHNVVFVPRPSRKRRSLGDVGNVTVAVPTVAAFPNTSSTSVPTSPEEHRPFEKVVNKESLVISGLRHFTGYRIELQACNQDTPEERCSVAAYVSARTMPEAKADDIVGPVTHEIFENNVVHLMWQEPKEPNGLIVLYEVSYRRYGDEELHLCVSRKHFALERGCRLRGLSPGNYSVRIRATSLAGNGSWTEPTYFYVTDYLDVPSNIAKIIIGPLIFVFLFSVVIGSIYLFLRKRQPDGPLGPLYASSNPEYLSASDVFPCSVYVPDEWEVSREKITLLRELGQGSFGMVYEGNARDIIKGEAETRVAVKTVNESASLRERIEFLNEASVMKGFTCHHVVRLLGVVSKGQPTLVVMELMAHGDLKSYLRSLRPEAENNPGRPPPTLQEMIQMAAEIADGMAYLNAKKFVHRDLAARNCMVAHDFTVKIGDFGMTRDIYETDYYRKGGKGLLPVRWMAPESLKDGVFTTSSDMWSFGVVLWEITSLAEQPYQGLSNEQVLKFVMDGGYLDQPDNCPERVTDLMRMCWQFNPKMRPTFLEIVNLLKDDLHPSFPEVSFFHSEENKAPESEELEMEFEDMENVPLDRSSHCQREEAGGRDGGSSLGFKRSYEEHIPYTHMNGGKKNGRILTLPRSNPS
Binder,insulin receptor affinity relative to human insulin (insulin receptor A [1]),Insulin receptor affinity [IC50 relative to HI (%)] (insulin receptor A [2]),Lipogenesis in rat adipocytes [Potency (%)] Mean Value [3],insulin receptor affinity relative to human insulin (insulin receptor A [4])
"A14E, A21G, A22(GQEP)12, A70K^, A71P, B25H, B29R, desB30 human insulin/(227A, 234A, 235K hIgG4-Fc(228-447)) … (other, Cys229 (EU numbering) sulphur bound to an acetyl arm of the linker; A70K N(eps) acylated by the trivalent linker 4-[bis[2-[(2-acetyl)amino]ethyl]amino]-4-oxo-butanoyl, also called Ex 5.8) chain 1: GIVEQCCTSICSLEQLENYCGGQEPGQEPGQEPGQEPGQEPGQEPGQEPGQEPGQEPGQEPGQEPGQEPKP chain 2: FVNQHLCGSHLVEALYLVCGERGFHYTPR chain 3: ASCPAPEAKGGPSVFLFPPKPKDTLMISRTPEVTCVVVDVSQEDPEVQFNWYVDGVEVHNAKTKPREEQFNSTYRVVSVLTVLHQDWLNGKEYKCKVSNKGLPSSIEKTISKAKGQPREPQVYTLPPSQEEMTKNQVSLTCLVKGFYPSDIAVEWESNGQPENNYKTTPPVLDSDGSFFLYSRLTVDKSRWQEGNVFSCSVMHEALHNHYTQKSLSLSLGK",0.5 to 10%,10.6%,5.31 % of human insulin,–
"A14E, A21G, A22(GQAPGQAPGQEP)6-GQAP, A98K^, A99P, B3Q, B25H, B29R, desB30 human insulin/(227A, 234A, 235K hIgG4-Fc(228-447)) … (other, Cys229 (EU numbering) sulphur bound to an acetyl arm of the linker; A98K N(eps) acylated by the trivalent linker 4-[bis[2-[(2-acetyl)amino]ethyl]amino]-4-oxo-butanoyl, also called Ex 5.5) chain 1: GIVEQCCTSICSLEQLENYCGGQAPGQAPGQEPGQAPGQAPGQEPGQAPGQAPGQEPGQAPGQAPGQEPGQAPGQAPGQEPGQAPGQAPGQEPGQAPKP chain 2: FVQQHLCGSHLVEALYLVCGERGFHYTPR chain 3: ASCPAPEAKGGPSVFLFPPKPKDTLMISRTPEVTCVVVDVSQEDPEVQFNWYVDGVEVHNAKTKPREEQFNSTYRVVSVLTVLHQDWLNGKEYKCKVSNKGLPSSIEKTISKAKGQPREPQVYTLPPSQEEMTKNQVSLTCLVKGFYPSDIAVEWESNGQPENNYKTTPPVLDSDGSFFLYSRLTVDKSRWQEGNVFSCSVMHEALHNHYTQKSLSLSLGK",–,3.34%,2.21 % of human insulin,–
"A14E, A21G, A22(GQEP)6, A46K^, A47P, B25H, B29R, desB30 human insulin/(227A, 234A, 235K hIgG4-Fc(228-447)) … (other, Cys229 (EU numbering) sulphur bound to an acetyl arm of the linker; A46K N(eps) acylated by the trivalent linker 4-[bis[2-[(2-acetyl)amino]ethyl]amino]-4-oxo-butanoyl, also called Ex 5.7) chain 1: GIVEQCCTSICSLEQLENYCGGQEPGQEPGQEPGQEPGQEPGQEPKP chain 2: FVNQHLCGSHLVEALYLVCGERGFHYTPR chain 3: ASCPAPEAKGGPSVFLFPPKPKDTLMISRTPEVTCVVVDVSQEDPEVQFNWYVDGVEVHNAKTKPREEQFNSTYRVVSVLTVLHQDWLNGKEYKCKVSNKGLPSSIEKTISKAKGQPREPQVYTLPPSQEEMTKNQVSLTCLVKGFYPSDIAVEWESNGQPENNYKTTPPVLDSDGSFFLYSRLTVDKSRWQEGNVFSCSVMHEALHNHYTQKSLSLSLGK",–,2.43%,1.88 % of human insulin,–
"(A14E, A21G, A22(GQEP)19, A98K^, A99P, B25H, B29R, desB30 human insulin)/(227A, 234A, 235K hIgG4-Fc(228-447)) … (other, Cys229 (EU numbering) sulphur bound to an acetyl arm of the linker; A98K N(eps) acylated by the trivalent linker 4-[bis[2-[(2-acetyl)amino]ethyl]amino]-4-oxo-butanoyl, Fc made in E. coli; also called Ex 5.1) chain 1: GIVEQCCTSICSLEQLENYCGGQEPGQEPGQEPGQEPGQEPGQEPGQEPGQEPGQEPGQEPGQEPGQEPGQEPGQEPGQEPGQEPGQEPGQEPGQEPKP chain 2: FVNQHLCGSHLVEALYLVCGERGFHYTPR chain 3: ASCPAPEAKGGPSVFLFPPKPKDTLMISRTPEVTCVVVDVSQEDPEVQFNWYVDGVEVHNAKTKPREEQFNSTYRVVSVLTVLHQDWLNGKEYKCKVSNKGLPSSIEKTISKAKGQPREPQVYTLPPSQEEMTKNQVSLTCLVKGFYPSDIAVEWESNGQPENNYKTTPPVLDSDGSFFLYSRLTVDKSRWQEGNVFSCSVMHEALHNHYTQKSLSLSLGK",–,5.07%,6.69 % of human insulin,–
"(A14E, A21G, A22(GQAP)18, A94G, A95Q, A96A, A97K^, A98P, B16E, B25H, B29R, desB30 human insulin)/(227A, 234A, 235K, 297E, 315Q, 384Q, des447 hIgG4-Fc(228-447)) … (other, Cys229 (EU numbering) sulphur bound to an acetyl arm of the linker; A97K N(eps) acylated by the trivalent linker 4-[bis[2-[(2-acetyl)amino]ethyl]amino]-4-oxo-butanoyl) chain 1: GIVEQCCTSICSLEQLENYCGGQAPGQAPGQAPGQAPGQAPGQAPGQAPGQAPGQAPGQAPGQAPGQAPGQAPGQAPGQAPGQAPGQAPGQAPGQAKP chain 2: FVNQHLCGSHLVEALELVCGERGFHYTPR chain 3: ASCPAPEAKGGPSVFLFPPKPKDTLMISRTPEVTCVVVDVSQEDPEVQFNWYVDGVEVHNAKTKPREEQFESTYRVVSVLTVLHQDWLQGKEYKCKVSNKGLPSSIEKTISKAKGQPREPQVYTLPPSQEEMTKNQVSLTCLVKGFYPSDIAVEWESQGQPENNYKTTPPVLDSDGSFFLYSRLTVDKSRWQEGNVFSCSVMHEALHNHYTQKSLSLSLG",–,0.47%,0.6 % of human insulin,0.5 to 10%

# — US20200261595A1 (Novo Nordisk, published 2020)
